Assay results from patent publication US20250009852A1, “DEPLETING EGFR AND HER2 OVERCOMES RESISTANCE TO EGFR INHIBITORS IN COLORECTAL CANCER” (Health Research, Inc., priority 2021, published 2025).
One block for each molecule: values may come before it.

Key:
HB-EGF = assay: Measurement of soluble HB-EGF in tumor tissues by ELISA; format: in vivo, mouse; conditions: HCT116 and HT29 tumors; aderbasib 60 mg/kg
Procedure: Concentrations of AREG and HB-EGF in tumor tissues were measured using the Human Amphiregulin/AREG ELISA Kit PicoKine and HB-EGF ELISA Kit, following the manufacturer's instruction. Briefly, 100 μl of standard or tumor tissue homogenate (cleared by centrifugation) was added to a microtiter well pre-coated with anti-human AREG or anti-human HB-EGF and incubated for 2 h at RT. After washing the plate with washing buffer, 100 μl of biotinylated anti-human AREG or biotinylated anti-human HB-EGF were added to each well and incubated for 1.5 h at RT. The microtiter wells were washed 3 times with wash buffer and incubated with 100 μl/well of avidin-biotin-peroxidase complex for 40 min at RT. The microtiter wells were washed 5 times with wash buffer and incubated with 90 µl/well color developing reagent for 30 min at RT. After adding 100 μl of stop solution to each well, absorbance at 450 nm was recorded by a Synergy 2 Multi-Mode Microplate Reader.

EGFR and HER2 = molecular target: T1, EGFR and HER2 (Homo sapiens, UniProt P00533); assay: Western blotting of whole cell lysates: EGFR and HER2; format: cell-based; conditions: HCT116, HT29 and SW48 cells, medium with 10% serum, 25 nM
T1 construct: Both EGFR and HER2 were expressed in HCT116, HT29, and SW48 cells; endogenous in cells; host or cells: HCT116, HT29, SW48 (SW620 lacks both)
Procedure: To prepare whole cell lysates, cells were washed with PBS twice, mixed with 1× cell lysis buffer from Cell Signaling Technology supplemented with 2 mM PMSF and a protease inhibitor cocktail from Roche Applied Science, placed on ice for 10 min, sonicated at 0-4° C. to enhance cell lysis using a Branson Model 450 sonifier, and finally centrifuged at 13,000 g for 10 min at 4° C., and the supernatant fraction is collected as whole cell lysate. Tumor and samples were mixed with RIPA buffer (25 mM Tris-HCl, PH7.6, 150 mM NaCl, 1% Nonidet P-40, 1% sodium deoxycholate, and 0.1% SDS), which was supplemented with 2 mM PMSF, the protease inhibitor cocktail mentioned above, phosphatase inhibitor cocktail 2 and phosphatase inhibitor cocktail 3 from Sigma-Aldrich at 14.3 μl buffer per mg tissue, and homogenized in a Dounce homogenizer. The homogenates were cleared by centrifugation at 13,000 g for 15 min at 4° C.
(§1) Protein concentrations in all samples were measured using the BCA Assay Kit. For Western blotting, each sample was mixed with 4× loading dye, heated for 5 min at 95° C., and resolved by SDS-PAGE (8-12.5%). Proteins were transferred to polyvinylidene fluoride membrane, probed with specific antibodies, and detected using either Luminata Classico (Millipore) or Luminata Cresendo (Millipore). For IP, cell lysates (0.5 mg protein/sample) were incubated with a desired antibody overnight at 4° C., followed by incubation of 500 μl sample with 30 μl G-Sepharose beads (2 mg/ml) for 1 h at RT. The beads were washed three times with IP buffer, suspended in 2× SDS loading buffer, boiled for 5 min, and analyzed by Western blotting.

RAS = RAS activity assay (Ras Activation ELISA) in cell lysates; format: cell-based, human; conditions: 25 nM, 48 h
Procedure: Ras activity in cell lysates was measured using a Ras Activation ELISA Kit from Cell Biolabs. Briefly, approximately 5×10^6 cells were mixed with 0.5 ml lysis buffer. Cell lysates were cleared by centrifugation at 14,000 g for 10 min at 4° C., and 250 μl per sample was mixed with 10 μl of 0.5 M EDTA with or without 5 μl of either 100× GTPγS or 100× GDP, which was incubated at 37° C. for 30 min with agitation and then mixed with 33 μl of 1 M MgCl2. The mixture after appropriate dilution was transferred at 100 μl per sample to a well in a 96-well plate immobilized with RAF-1 RAS-binding domain and incubated for 1 h at RT. After washing the wells 5 times with wash buffer, 100 μl of an anti-pan-RAS antibody was added to each well and incubated for 1 h at RT. After another round of wash, 100 μl of a secondary antibody-HRP conjugate was added to each well and incubated for 1 h at RT. After yet another round of wash, 100 μl of substrate solution was added to each well and incubated at RT for 20 min, followed by addition of 100 μl of stop solution to each well. Absorbance at 450 nm in each well was recorded by a Synergy 2 Multi-Mode Microplate Reader.

[1] = system: EGFR^R451C, EGFR^K467T, EGFR^S492R and WT EGFR; assay: Western blotting of SW620 cells transfected with EGFR or its mutant; format: cell-based, human; conditions: 25 nM for 48 h, extent very similar to WT EGFR
Source text: pGL4.51[luc2/CMV/Neo] was purchased from Promega (Cat #E132A). pCMV6-A-EGFR-puro, reported previously, was used as a template to generate single point mutations of EGFR, including R451C, K467T, and S492R, using the QuikChange Lightning Site-Directed Mutagenesis Kit (Agilent Technologies). The primers were purchased from IDT, including primers for generating EGFR^R451C (forward: 5′-[…]-3 (SEQ ID NO:2); reverse: 5′-[…]-3′ (SEQ ID NO:3), EGFR^K467T(forward: 5-[…]-3′ (SEQ ID NO:4); reverse: 5′-[…]-3′ (SEQ ID NO:5), and EGFR^S492R (forward: 5′-[…]-3′ (SEQ ID NO:6); reverse: 5′-[…]-3′ (SEQ ID NO:7)). All constructs were confirmed by DNA sequence analysis.
Transfection of pCMV6-A-puro-EGFR, pCMV6-A-puro-EGFR^R451C, pCMV6-A-puro-EGFR^K467T or pCMV6-A-puro-EGFR^RS492R was performed using Lipofectamine 3000. SW620 cells were grown in 6-well plates (3×10^5 cells/well with 2 ml medium) for 24 h and then transfected with a plasmid at 1 μg DNA per well for 48 h. […]
Protein concentrations in all samples were measured using the BCA Assay Kit. […] Proteins were transferred to polyvinylidene fluoride membrane, probed with specific antibodies, and detected using either Luminata Classico (Millipore) or Luminata Cresendo (Millipore). […] The beads were washed three times with IP buffer, suspended in 2× SDS loading buffer, boiled for 5 min, and analyzed by Western blotting.

[2] = system: EGFR-HER3, EGFR-IGF1R and EGFR-MET heterodimers; assay: Immunoprecipitation and Western blotting of EGFR heterodimers; format: cell-based, human; conditions: 25 nM, 48 h
Procedure: as §1

Molecule: COC(=O)N1CC2(CC2)C[C@H](C(=O)NO)[C@H]1C(=O)N1CC=C(c2ccccc2)CC1 [aderbasib]
soluble HB-EGF level in the tumor tissues (HB-EGF): marked decrease

EGFR level (EGFR and HER2; 6 h): no decrease
EGFR level (EGFR and HER2; 24 h): profound decrease
B1: PEPD^G278D: recombinant and enzymatically inactive mutant of human peptidase D (PEPD), with replacement of glycine 278 by aspartic acid (protein)
chain: AAATGPSFWLGNETLKVPLALFALNRQRLCERLRKNPAVQAGSIVVLQGGEETQRYCTDTGVLFLQESFFHWAFGVTEPGCYGVIDVDTGKSTLFVPRLPASHATWMGKIHSKEHFKEKYAVDDVQYVDEIASVLTSQKPSVLLTLRGVNTDSGSVCREASFDGISKFEVNNTILHPEIVESRVFKTDMELEVLRYTNKISSEAHREVMKAVKVGMKEYGLESLFEHYCYSRGGMRHSSYTCICGSGENSAVLHYGHAGAPNDRTIQNGDMCLFDMDGEYYSVASDITCSFPRNGKFTADQKAVYEAVLLSSRAVMGAMKPGDWWPDIDRLADRIHLEELAHMGILSGSVDAMVQAHLGAVFMPHGLGHFLGIDVHDVGGYPEGVERIDEPGLRSLRTARHLQPGMVLTVEPGIYFIDHLLDEALADPARASFLNREVLQRFRGFGGVRIEEDVVVIDSGIELLTCVPRTVEEIEACMAGCDKAFTPFSGPK
modifications: left off: small tags and cut ends
inhibition of RAS activity (RAS; HCT116 cells): 73%
inhibition of RAS activity (RAS; HT29 cells): 75%
inhibition of RAS activity (RAS; SW48 cells): 75%
downregulation (expression and phosphorylation) of each EGFR mutant R451C, K467T, S492R [1]: strongly downregulated
EGFR association with HER3, MET or IGF1R [2]: disruption of EGFR association
